This is an account of results in US20230406950A1 (LYVGEN BIOPHARMA, published 2023).

Assay [1] concerns the target T1, human PD-1 expressed on cells (human, UniProt Q15116 25-288).
T1 construct: whole, on cells; also called human PD-1 over-expressed on the CHO cells; Jurkat/NFkB-Luci/PD-1 cells
As to the kind of experiment: flow cytometry (FACS), MFI, CHO cells expressing human PD-1. Here is the method:
(§1) Exemplary anti-PD-1/CD137 bi-specific antibodies were analyzed by FACS for their binding properties to human PD-1 and/or human CD137 expressed on CHO cells. Briefly, cultured cells were harvested, counted and cell viability was evaluated using the Trypan Blue exclusion method. Viable cells were then adjusted to 2×10⁶ cells per mL in PBS containing 2% BSA. 100 μL of this cell suspension were further aliquoted per well into a V-bottom 96-well plate. […] After incubation for 2 hours at 4° C., cells were centrifuged (3 min, 1000× g), washed with 250 μL/well BSA-containing FACS Stain Buffer, resuspended and incubated for an additional 1 hour at 4° C. with 100 μL/well fluorochrome-conjugated anti-IgG antibody for detection of the bisepecific antibody. Cells were then washed with 250 μL/well BSA-containing FACS Stain Buffer, resuspended in 100 μL/well FACS Stain Buffer, acquired and analyzed using a FACS machine. Binding of the bispecific antibodies to human PD-1 or human CD137 expressing CHO cells were evaluated and the mean fluorescence intensity is plotted in histograms or dot plots.

For assay [2], the target named is T2, human CD137 ECD protein (His tag) (human, UniProt Q07011 24-186).
T2 construct: extracellular domain; also called recombinant human CD137; not shown: His tag
Nature of the assay: bridging ELISA: human CD137 ECD (His tag) coated, antibody titrated, then human PD-1 ECD (mouse IgG2a Fc tag), HRP anti-mouse IgG2a Fc; A450-A620. As for the experimental part: Exemplary anti-PD-1/CD137 bi-specific antibodies were analyzed by ELISA for their simultaneous binding to recombinant human PD-1 and human CD137. Briefly, human CD137 ECD protein (His tag) was diluted and coated onto an ELISA plate with a volume of 100 μL/well by incubation at 4° C. overnight. The next day, the plate was blocked with PBST-BSA buffer, then serially diluted samples of anti-PD-1/CD137 bi-specific antibodies were pipetted into appropriate wells at 50 μL/well, and the plate was incubated for 1 hour followed by washing. The extracellular domain (ECD) of human PD-1 protein (mouse IgG2a Fc tag) was added into the plate at 50 μL/well. After 1-hour incubation at room temperature, HRP-conjugated anti-Mouse IgG, Fc G2a specific antibody was added into the plate at 100 μL/well. The plate was incubated for 1 hour at room temperature followed by washing. TMB substrate solution was added at 100 μL/well and the color development was stopped by adding 100 uL/well Stop Solution (2N H₂SO₄). Absorbance at 450 nm and 620 nm was read by Tecan F200 Pro plate reader. GraphPad 7.0, “[Agonist] vs. response—Variable slope (four parameters)” was used to plot the binding data and calculate binding EC50 values.

Assay [3] concerns the target T3, human CD137 expressed on cells (human, UniProt Q07011 24-255).
T3 construct: whole, on cells; also called 4-1BB; TNFRSF9
Nature of the assay: flow cytometry (FACS), MFI, CHO cells expressing human CD137. As for the experimental part: as §1
For orientation: In flow cytometry, cells or beads pass a laser one at a time.

Usually EC50 (read off the curve) stands for the concentration at which the effect is half-maximal.

T1 sequence (Q15116 25-288): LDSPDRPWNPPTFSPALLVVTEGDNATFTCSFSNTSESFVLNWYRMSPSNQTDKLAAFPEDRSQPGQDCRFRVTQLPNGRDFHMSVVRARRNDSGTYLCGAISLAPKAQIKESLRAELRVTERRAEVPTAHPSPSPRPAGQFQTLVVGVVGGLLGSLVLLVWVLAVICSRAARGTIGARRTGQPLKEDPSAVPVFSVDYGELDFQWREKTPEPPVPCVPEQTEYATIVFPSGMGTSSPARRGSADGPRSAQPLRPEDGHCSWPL
T3 sequence (Q07011 24-255): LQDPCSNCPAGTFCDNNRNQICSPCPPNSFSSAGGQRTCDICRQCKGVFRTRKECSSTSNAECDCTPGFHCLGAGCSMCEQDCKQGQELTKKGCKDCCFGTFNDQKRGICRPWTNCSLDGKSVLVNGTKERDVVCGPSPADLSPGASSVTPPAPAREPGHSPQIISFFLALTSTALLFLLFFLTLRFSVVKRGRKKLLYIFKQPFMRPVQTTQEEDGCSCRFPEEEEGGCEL

B1: Ly512 (bispecific antibody, human IgG2, kappa)
heavy: QVTLKESGPALVKPTQTLTLTCTFSGFSLSTSGTCVSWIRQPPGKALEWLATICWEDSKGYNPSLKSRLTISKDTSKNQAVLTMTNMDPVDTATYYCARREDSGYFWFPYWGQGTLVTVSSASTKGPSVFPLAPCSRSTSESTAALGCLVKDYFPEPVTVSWNSGALTSGVHTFPAVLQSSGLYSLSSVVTVPSSNFGTQTYTCNVDHKPSNTKVDKTVERKCCVECPPCPAPPVAPSVFLFPPKPKDTLMISRTPEVTCVVVDVSHEDPEVQFNWYVDGVEVHNAKTKPREEQFNSTFRVVSVLTVVHQDWLNGKEYKCKVSNKGLPAPIEKTISKTKGQPREPQVYTLPPSREEMTKNQVSLTCLVKGFYPSDIAVEWESNGQPENNYKTTPPMLDSDGSFFLYSKLTVDKSRWQQGNVFSCSVMHEALHNHYTQKSLSLSPGK
light: NIQMTQSPSSLSASVGDRVTITCKAGQNVNNYLAWYQQKPGKAPKVLIFNANSLQTGVPSRFSGSGSGTDFTLTISSLQPEDFATYYCQQYNSWPTFGGGTKVEIKRTVAAPSVFIFPPSDEQLKSGTASVVCLLNNFYPREAKVQWKVDNALQSGNSQESVTEQDSKDSTYSLSSTLTLSKADYEKHKVYACEVTHQGLSSPVTKSFNRGECGGGGSGGGGSGGGGSGGGGSDIQMTQSPSSLSASVGDRVTITCRASQDIRSNLNWYQQKPGGAVKLLIYYTSRLHSGVPSRFSGSGSGTDYTLTISSLQPEDFATYFCQQSEKLPRTFGGGTKVEIRGGGGSGGGGSGGGGSGGGGSQVQLVQSGAEVKKPGASVKVSCKASGYTFAGFEMHWVRQAPGQGLEWMGAIDPKTGGTDYNQKFKDRVTMTRDTSISTAYMELSRLRSDDTAVYYCARDLGYFDVWGQGTLVTVSS
notes: Anti-PD-1/CD137: Ly516 heavy chain; Ly516 light chain fused to Ly1630 scFv (VL-VH)
For the molecule B1, the results for the concentration for a half-maximal effect (EC50 (read off the curve)) in assay [1] and in assay [2] were ~0.1 µg/mL and ~0.02 µg/mL, respectively.

B2: Ly460 (bispecific antibody, human IgG1, kappa)
heavy: QVTLKESGPALVKPTQTLTLTCTFSGFSLSTSGTCVSWIRQPPGKALEWLATICWEDSKGYNPSLKSRLTISKDTSKNQAVLTMTNMDPVDTATYYCARREDSGYFWFPYWGQGTLVTVSSASTKGPSVFPLAPSSKSTSGGTAALGCLVKDYFPEPVTVSWNSGALTSGVHTFPAVLQSSGLYSLSSVVTVPSSSLGTQTYICNVNHKPSNTKVDKKVEPKSCDKTHTCPPCPAPELLGPSVFLFPPKPKDTLMISRTPEVTCVVVDVSHEDPEVKFNWYVDGVEVHNAKTKPREEQYNSTYRVVSVLTVLHQDWLNGKEYKCKVSNKALPAPIEKTISKAKGQPREPQVYTLPPSREEMTKNQVSLTCLVKGFYPSDIAVEWESNGQPENNYKTTPPVLDSDGSFFLYSKLTVDKSRWQQGNVFSCSVMHEALHNHYTQKSLSLSPGGGGGSGGGGSGGGGSGGGGSDIQMTQSPSSLSASVGDRVTITCRASQDIRSNLNWYQQKPGGAVKLLIYYTSRLHSGVPSRFSGSGSGTDYTLTISSLQPEDFATYFCQQSEKLPRTFGGGTKVEIRRTVAAPSVFIFPPSDEQLKSGTASVVCLLNNFYPREAKVQWKVDNALQSGNSQESVTEQDSKDSTYSLSSTLTLSKADYEKHKVYACEVTHQGLSSPVTKSFNRGEC
light: NIQMTQSPSSLSASVGDRVTITCKAGQNVNNYLAWYQQKPGKAPKVLIFNANSLQTGVPSRFSGSGSGTDFTLTISSLQPEDFATYYCQQYNSWPTFGGGTKVEIKRTVAAPSVFIFPPSDEQLKSGTASVVCLLNNFYPREAKVQWKVDNALQSGNSQESVTEQDSKDSTYSLSSTLTLSKADYEKHKVYACEVTHQGLSSPVTKSFNRGEC
chain: QVQLVQSGAEVKKPGASVKVSCKASGYTFAGFEMHWVRQAPGQGLEWMGAIDPKTGGTDYNQKFKDRVTMTRDTSISTAYMELSRLRSDDTAVYYCARDLGYFDVWGQGTLVTVSSASTKGPSVFPLAPSSKSTSGGTAALGCLVKDYFPEPVTVSWNSGALTSGVHTFPAVLQSSGLYSLSSVVTVPSSSLGTQTYICNVNHKPSNTKVDKKVEPKSCDK
notes: Three-chain format: Ly516 heavy chain fused to Ly1630 light chain; Ly516 light chain; Ly1630 VH-CH1
For the molecule B2, in assay [1], the “EC50 (read off the curve)” value is ~0.2 µg/mL. Also, the binding result in assay [3] and in assay [2] was “binds” each time.

B3: Ly511 (bispecific antibody, human IgG2, kappa)
heavy: QVTLKESGPALVKPTQTLTLTCTFSGFSLSTSGTCVSWIRQPPGKALEWLATICWEDSKGYNPSLKSRLTISKDTSKNQAVLTMTNMDPVDTATYYCARREDSGYFWFPYWGQGTLVTVSSASTKGPSVFPLAPCSRSTSESTAALGCLVKDYFPEPVTVSWNSGALTSGVHTFPAVLQSSGLYSLSSVVTVPSSNFGTQTYTCNVDHKPSNTKVDKTVERKCCVECPPCPAPPVAPSVFLFPPKPKDTLMISRTPEVTCVVVDVSHEDPEVQFNWYVDGVEVHNAKTKPREEQFNSTFRVVSVLTVVHQDWLNGKEYKCKVSNKGLPAPIEKTISKTKGQPREPQVYTLPPSREEMTKNQVSLTCLVKGFYPSDIAVEWESNGQPENNYKTTPPMLDSDGSFFLYSKLTVDKSRWQQGNVFSCSVMHEALHNHYTQKSLSLSPGGGGGSGGGGSGGGGSGGGGSQVQLVQSGAEVKKPGASVKVSCKASGYTFAGFEMHWVRQAPGQGLEWMGAIDPKTGGTDYNQKFKDRVTMTRDTSISTAYMELSRLRSDDTAVYYCARDLGYFDVWGQGTLVTVSSGGGGSGGGGSGGGGSGGGGSDIQMTQSPSSLSASVGDRVTITCRASQDIRSNLNWYQQKPGGAVKLLIYYTSRLHSGVPSRFSGSGSGTDYTLTISSLQPEDFATYFCQQSEKLPRTFGGGTKVEIR
light: B2 light
notes: Anti-PD-1/CD137: Ly516 heavy chain fused to Ly1630 scFv (VH-VL); Ly516 light chain
Consider B3, for which the half-maximal effective concentration (EC50 (read off the curve)) in assay [1] is ~0.2 µg/mL; in assay [3], ~0.2 µg/mL; in assay [2] it was ~0.02 µg/mL.

B4: Ly510 (bispecific antibody, human IgG2, kappa)
heavy: QVTLKESGPALVKPTQTLTLTCTFSGFSLSTSGTCVSWIRQPPGKALEWLATICWEDSKGYNPSLKSRLTISKDTSKNQAVLTMTNMDPVDTATYYCARREDSGYFWFPYWGQGTLVTVSSASTKGPSVFPLAPCSRSTSESTAALGCLVKDYFPEPVTVSWNSGALTSGVHTFPAVLQSSGLYSLSSVVTVPSSNFGTQTYTCNVDHKPSNTKVDKTVERKCCVECPPCPAPPVAPSVFLFPPKPKDTLMISRTPEVTCVVVDVSHEDPEVQFNWYVDGVEVHNAKTKPREEQFNSTFRVVSVLTVVHQDWLNGKEYKCKVSNKGLPAPIEKTISKTKGQPREPQVYTLPPSREEMTKNQVSLTCLVKGFYPSDIAVEWESNGQPENNYKTTPPMLDSDGSFFLYSKLTVDKSRWQQGNVFSCSVMHEALHNHYTQKSLSLSPGGGGGSGGGGSGGGGSGGGGSDIQMTQSPSSLSASVGDRVTITCRASQDIRSNLNWYQQKPGGAVKLLIYYTSRLHSGVPSRFSGSGSGTDYTLTISSLQPEDFATYFCQQSEKLPRTFGGGTKVEIRGGGGSGGGGSGGGGSGGGGSQVQLVQSGAEVKKPGASVKVSCKASGYTFAGFEMHWVRQAPGQGLEWMGAIDPKTGGTDYNQKFKDRVTMTRDTSISTAYMELSRLRSDDTAVYYCARDLGYFDVWGQGTLVTVSS
light: B2 light
notes: Anti-PD-1/CD137: Ly516 heavy chain (other constant region than Ly456) fused to Ly1630 scFv (VL-VH); Ly516 light chain
B4: the entries for the half-maximal effective concentration (EC50 (read off the curve)) in assay [1] and in assay [2] were ~0.2 µg/mL and ~0.02 µg/mL, respectively.

B5: Ly456 (bispecific antibody, human IgG1, kappa)
heavy: QVTLKESGPALVKPTQTLTLTCTFSGFSLSTSGTCVSWIRQPPGKALEWLATICWEDSKGYNPSLKSRLTISKDTSKNQAVLTMTNMDPVDTATYYCARREDSGYFWFPYWGQGTLVTVSSASTKGPSVFPLAPSSKSTSGGTAALGCLVKDYFPEPVTVSWNSGALTSGVHTFPAVLQSSGLYSLSSVVTVPSSSLGTQTYICNVNHKPSNTKVDKKVEPKSCDKTHTCPPCPAPELLGPSVFLFPPKPKDTLMISRTPEVTCVVVDVSHEDPEVKFNWYVDGVEVHNAKTKPREEQYNSTYRVVSVLTVLHQDWLNGKEYKCKVSNKALPAPIEKTISKAKGQPREPQVYTLPPSREEMTKNQVSLTCLVKGFYPSDIAVEWESNGQPENNYKTTPPVLDSDGSFFLYSKLTVDKSRWQQGNVFSCSVMHEALHNHYTQKSLSLSPGGGGGSGGGGSGGGGSGGGGSDIQMTQSPSSLSASVGDRVTITCRASQDIRSNLNWYQQKPGGAVKLLIYYTSRLHSGVPSRFSGSGSGTDYTLTISSLQPEDFATYFCQQSEKLPRTFGGGTKVEIRGGGGSGGGGSGGGGSGGGGSQVQLVQSGAEVKKPGASVKVSCKASGYTFAGFEMHWVRQAPGQGLEWMGAIDPKTGGTDYNQKFKDRVTMTRDTSISTAYMELSRLRSDDTAVYYCARDLGYFDVWGQGTLVTVSS
light: B2 light
notes: Anti-PD-1/CD137: Ly516 heavy chain fused at C-terminus to Ly1630 scFv (VL-VH); Ly516 light chain
B5: the “EC50 (read off the curve)” value is ~0.2 µg/mL in assay [1] and ~0.02 µg/mL in assay [2].
